Measurements: WO2021212049A2

How the values were obtained:
Conditions in all cases: remark: other sources report otherwise
[1] = biological target: T1, untagged SARS-CoV-2 RBD expressed in E. coli BL21(DE3) and oxidatively refolded (RBDWT) (SARS-CoV-2), P0DTC2; experiment: BLI, RBD expressed in E. coli
[2] = biological target: bacterially derived SARS-CoV RBD (SARS-CoV), P59594; experiment: BLI, bacterially derived SARS-CoV RBD
[3] = biological target: Mammalian SARS-CoV2 RBD (residues 331-524) with C-terminal 6XHis Tag (SARS-CoV-2), P0DTC2; experiment: ELISA on coated antigen, anti-human IgG-HRP
[4] = biological target: T1, untagged SARS-CoV-2 RBD expressed in E. …; experiment: BLI, RBD expressed in E. coli, 1:1 Langmuir fit

B1: mAb 2H04 (antibody)
chain 1: EVQLQQSGAELVKPGASVKMSCKASGYTFTSYWITWVKQRPGQGLEWIGDIYPGSGSTKYNEKFRSEATLTVDTSSTTAYMQLSSLTSEDSAVYYCARWDFYGSRTFDYWGQGTTLTVSS
chain 2: DIVLTQSPAILSVSPGERVSFSCRASQNIGTIIHWYQQRTNGSPRLLIKYASESVSGIPSRFSGSGSGTDFTLSINSVESEDIADYYCQQSSSWPLTFGAGTKLELK
**Q.** Which half-life [1] does the source give for B1 here?
**A.** Its half-life is 76.2 s.

**Q.** And the Kd [2]?
**A.** The Kd was 1420 nM.

**Q.** What about the half-life [2] of the same binder?
**A.** Its half-life is 25.8 s.

**Q.** And the minimum positive concentration [3]?
**A.** Its minimum positive concentration is less than 5 µg/mL.

**Q.** And the Kd [4]?
**A.** Its Kd is 40 nM.
